Publication PMC3084791, “The Structure of Helicobacter pylori HP0310 Reveals an Atypical Peptidoglycan Deacetylase” (PLoS ONE, 2011)

Target: the molecule itself
Experiment: crystal structure; crystals at 20°C by vapor diffusion, 0.2 M ammonium sulfate, 0.1 M trisodium citrate pH 5.6, 15% PEG 4000; space group C2221; one tetramer in the asymmetric unit; 2.57 Å

B1: Peptidoglycan deacetylase (HP0310, HpPgdA) from Helicobacter pylori (enzyme)
chain: MAKEILVAYGVDIDAVAGWLGSYGGEDSPDDISRGLFAGEVGIPRLLKLFKKYHLPATWFVPGHSIETFPEQMKMIVDAGHEVGAHGYSHENPIAMSTKQEEDVLLKSVELIKDLTGKAPTGYVAPWWEFSNITNELLLKHGFKYDHSLMHNDFTPYYVRVGDSWSKIDYSLEAKDWMKPLIRGVETNLVEIPANWYLDDLPPMMFIKKSPNSFGFVSPRDIGQMWIDQFDWVYREMDYAVFSMTIHPDVSARPQVLLMHEKIIEHINKHEGVRWVTFNEIADDFLKRNPRKK
notes: HP0310 (HpPgdA), peptidoglycan deacetylase, amplified from genomic H. pylori G27 with primers from the ATG to the stop codon; soluble protein of 293 amino acids; residues 2 to 291 visible in the crystal; Cloned in pET151 in frame with an N-terminal His-tag flanked by a TEV site; the entry of strain 26695 would be another; also called His tagged-Hp0310; H. pylori peptidoglycan deacetylase; source: …
stoichiometry N: 4
